Test results: patent US20230365698A1, “ANTI-IFNAR1 DOSING REGIME FOR SUBCUTANEOUS INJECTION” (published 2023)

Key:
[1] = molecular target: T1, subunit 1 of the type I interferon receptor (IFNAR1), in patients (human, UniProt P17181); experiment: cell-based or functional assay
T1 sequence: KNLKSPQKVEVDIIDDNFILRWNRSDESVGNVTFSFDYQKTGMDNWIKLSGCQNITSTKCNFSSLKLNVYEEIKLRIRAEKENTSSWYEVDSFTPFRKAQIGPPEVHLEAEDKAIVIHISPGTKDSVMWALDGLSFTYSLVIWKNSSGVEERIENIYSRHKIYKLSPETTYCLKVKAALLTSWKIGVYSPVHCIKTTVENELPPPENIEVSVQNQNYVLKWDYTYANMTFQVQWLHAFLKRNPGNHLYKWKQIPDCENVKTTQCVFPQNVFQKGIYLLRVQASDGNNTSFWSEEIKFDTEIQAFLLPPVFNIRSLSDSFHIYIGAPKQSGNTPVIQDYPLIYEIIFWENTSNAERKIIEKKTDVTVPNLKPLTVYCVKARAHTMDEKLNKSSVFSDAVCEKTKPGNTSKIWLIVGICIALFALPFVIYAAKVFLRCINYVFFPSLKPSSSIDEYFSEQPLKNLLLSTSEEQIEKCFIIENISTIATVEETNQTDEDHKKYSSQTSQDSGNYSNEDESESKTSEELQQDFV

[2] = molecular target: T1, subunit 1 of the type I interferon …; experiment: cell-based or functional assay; remark: listed apart in the source

B1: Anifrolumab (antibody, V domains shown)
VH: EVQLVQSGAEVKKPGESLKISCKGSGYIFTNYWIAWVRQMPGKGLESMGIIYPGDSDIRYSPSFQGQVTISADKSITTAYLQWSSLKASDTAMYYCARHDIEGFDYWGRGTLVTVSS
VL: EIVLTQSPGTLSLSPGERATLSCRASQSVSSSFFAWYQQKPGQAPRLLIYGASSRATGIPDRLSGSGSGTDFTLTITRLEPEDFAVYYCQQYDSSAITFGQGTRLEIKR
- IC80: approximate anifrolumab concentration required to produce 80% of the maximum inhibition of the 21-IFNGS expression relative to baseline (PK/PD model estimate) [1]: 3.88 µg/mL
- IC50 (nM): anifrolumab concentration required to produce 50% of the maximum inhibition of the 21-IFNGS expression relative to baseline (PK/PD model estimate from TULIP-1 and TULIP-2 data) [2]: 6.56 nM
